Experimental data published in patent publication US20110280859A1 (UNIVERSITY OF ROCHESTER, published 2011).

Key:
[1] = target: β3 integrins on human neutrophils (human, UniProt P05106 27-788); assay: cell-based or functional assay
[2] = target: β1 integrins on human neutrophils (human, UniProt P05556 21-798); assay: cell-based or functional assay
Sequence of β1 integrins on human neutrophils (P05556 21-798): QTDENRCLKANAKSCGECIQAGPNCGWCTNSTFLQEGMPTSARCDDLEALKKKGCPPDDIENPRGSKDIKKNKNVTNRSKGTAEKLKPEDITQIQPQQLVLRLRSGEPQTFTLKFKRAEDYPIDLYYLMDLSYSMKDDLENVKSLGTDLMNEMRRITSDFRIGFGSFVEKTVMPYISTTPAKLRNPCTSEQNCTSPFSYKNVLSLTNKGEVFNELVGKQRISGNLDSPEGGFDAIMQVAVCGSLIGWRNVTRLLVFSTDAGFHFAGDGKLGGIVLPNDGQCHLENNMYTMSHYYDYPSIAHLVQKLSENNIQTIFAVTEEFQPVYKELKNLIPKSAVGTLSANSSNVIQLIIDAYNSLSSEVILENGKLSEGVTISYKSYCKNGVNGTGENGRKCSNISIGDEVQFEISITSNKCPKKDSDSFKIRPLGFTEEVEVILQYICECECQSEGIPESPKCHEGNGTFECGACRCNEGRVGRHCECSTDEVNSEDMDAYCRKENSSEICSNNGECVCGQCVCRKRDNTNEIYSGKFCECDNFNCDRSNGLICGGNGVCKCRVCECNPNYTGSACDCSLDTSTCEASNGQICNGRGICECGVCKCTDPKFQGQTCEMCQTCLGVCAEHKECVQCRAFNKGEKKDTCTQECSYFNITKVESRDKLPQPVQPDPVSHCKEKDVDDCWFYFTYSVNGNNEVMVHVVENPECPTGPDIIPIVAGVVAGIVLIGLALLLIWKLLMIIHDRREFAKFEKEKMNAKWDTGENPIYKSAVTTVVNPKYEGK

Sequence of β3 integrins on human neutrophils (P05106 27-788): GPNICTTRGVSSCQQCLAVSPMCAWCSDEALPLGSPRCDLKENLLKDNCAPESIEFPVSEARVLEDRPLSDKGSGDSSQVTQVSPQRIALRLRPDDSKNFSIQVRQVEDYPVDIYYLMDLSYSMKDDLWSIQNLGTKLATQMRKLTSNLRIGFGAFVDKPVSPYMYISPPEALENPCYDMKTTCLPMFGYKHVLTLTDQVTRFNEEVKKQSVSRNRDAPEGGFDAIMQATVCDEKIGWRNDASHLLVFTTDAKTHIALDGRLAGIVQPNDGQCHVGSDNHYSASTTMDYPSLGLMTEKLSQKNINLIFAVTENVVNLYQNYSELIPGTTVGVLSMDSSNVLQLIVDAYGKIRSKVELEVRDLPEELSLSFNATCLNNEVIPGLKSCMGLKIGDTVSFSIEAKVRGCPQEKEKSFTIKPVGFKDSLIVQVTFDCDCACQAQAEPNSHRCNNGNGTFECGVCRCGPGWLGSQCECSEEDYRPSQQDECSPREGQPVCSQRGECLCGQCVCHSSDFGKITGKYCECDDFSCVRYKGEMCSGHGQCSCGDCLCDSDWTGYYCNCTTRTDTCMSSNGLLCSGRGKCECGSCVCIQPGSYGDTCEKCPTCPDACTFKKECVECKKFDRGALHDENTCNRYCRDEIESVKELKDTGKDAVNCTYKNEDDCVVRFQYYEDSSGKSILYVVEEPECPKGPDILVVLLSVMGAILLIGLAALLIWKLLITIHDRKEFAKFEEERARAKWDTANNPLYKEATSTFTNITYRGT

B1: Recombinant human activated protein C (enzyme)
chain 1: ANSFLEELRHSSLERECIEEICDFEEAKEIFQNVDDTLAFWSKHVDGDQCLVLPLEHPCASLCCGHGTCIDGIGSFSCDCRSGWEGRFCQREVSFLNCSLDNGGCTHYCLEEVGWRRCSCAPGYKLGDDLLQCHPAVKFPCGRPWKRMEKKRSHL
chain 2: LIDGKMTRRGDSPWQVVLLDSKKKLACGAVLIHPSWVLTAAHCMDESKKLLVRLGEYDLRRWEKWELDLDIKEVFVHPNYSKSTTDNDIALLHLAQPATLSQTIVPICLPDSGLAERELNQAGQETLVTGWGYHSSREKEAKRNRTFVLNFIKIPVVPHNECSEVMSNMVSENMLCAGILGDRQDACEGDSGGPMVASFHGTWFLVGLVSWGEGCGLLHNYGVYTKVSRYLDWIHGHIRDKEAPQKSWAP
average lateral migration speed (S) of neutrophils on FN toward fMLP, micropipette assay [1]: 2.5 fold
average lateral migration speed (S) of neutrophils on FN toward fMLP, micropipette assay [2]: 2.5 fold
